Numbering of substitutions follows the chain as printed.

For test [1], the target named is T1, dog iRhom2 full length wild type C-terminally tagged with 3 consecutive copies of the T7 epitope (dog, UniProt Q00M95 1-827).
T1 construct: whole, on cells; also called dog-iR2-FL-WT-T7; expressed by MEF-DKO-Dog-iR2-FL-WT-T7 cells
T1 sequence: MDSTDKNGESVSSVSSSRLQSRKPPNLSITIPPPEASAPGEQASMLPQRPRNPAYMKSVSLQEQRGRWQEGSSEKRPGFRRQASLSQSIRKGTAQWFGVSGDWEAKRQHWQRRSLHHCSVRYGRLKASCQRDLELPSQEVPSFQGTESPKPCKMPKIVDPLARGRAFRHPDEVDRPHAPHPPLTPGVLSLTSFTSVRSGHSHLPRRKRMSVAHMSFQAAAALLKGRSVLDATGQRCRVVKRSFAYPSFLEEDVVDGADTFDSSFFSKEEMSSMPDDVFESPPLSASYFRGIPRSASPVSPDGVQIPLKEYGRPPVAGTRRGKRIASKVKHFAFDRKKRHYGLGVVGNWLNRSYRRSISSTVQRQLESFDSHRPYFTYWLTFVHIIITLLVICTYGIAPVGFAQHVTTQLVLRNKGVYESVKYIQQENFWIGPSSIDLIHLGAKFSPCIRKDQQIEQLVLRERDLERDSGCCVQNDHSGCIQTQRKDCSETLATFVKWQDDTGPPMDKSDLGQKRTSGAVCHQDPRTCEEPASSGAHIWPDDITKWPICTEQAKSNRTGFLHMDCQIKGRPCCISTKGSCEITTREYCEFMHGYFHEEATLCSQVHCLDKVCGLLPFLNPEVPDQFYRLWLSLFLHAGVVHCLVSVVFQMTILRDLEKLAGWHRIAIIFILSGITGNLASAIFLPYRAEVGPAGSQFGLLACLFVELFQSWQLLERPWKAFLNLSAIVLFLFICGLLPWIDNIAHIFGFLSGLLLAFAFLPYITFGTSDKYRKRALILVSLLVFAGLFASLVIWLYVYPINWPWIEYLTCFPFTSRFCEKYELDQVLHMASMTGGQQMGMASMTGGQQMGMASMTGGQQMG
The test can be described thus: FACS on MEF-DKO-Dog-iR2-FL-WT-T7 cells, 3 µg/ml. The procedure:
(§1) In brief, immortalized MEF-DKO-EV control cells, MEF-DKO-rhesus-iR2-FL-WT-T7 cells, MEF-DKO-cyno-iR2-FL-WT-T7 cells, MEF-DKO-dog-iR2-FL-WT-T7 cells and MEF-DKO-rabbit-iR2-FL-WT-T7 cells, as well as their respective iRhom1 counterparts, were harvested with 10 mM EDTA in PBS, washed and resuspended in FACS buffer (PBS, 3% FBS, 0.05% sodium azide), and seeded in Nunc U-bottom 96-well plates (Thermo Fisher Scientific, USA) at approximately 3×10⁵ cells per well. To pellet cells and remove supernatants, the plates were centrifuged at 1,500 rpm and 4° C. for 3 minutes. For primary staining, cells were resuspended in 100 μl per well of either FACS buffer alone (controls), mouse monoclonal anti-T7 IgG (Merck Millipore, USA) at 3 μg/ml FACS buffer or the antibodies of the invention also at 3 μg/ml FACS buffer and incubated on ice for 1 hour. Afterwards, plates were centrifuged at 1,500 rpm and 4° C. for 3 minutes and washed twice with 200 μl per well of FACS buffer. For secondary staining of previous anti T7 staining, cells were spun down and resuspended in 100 μl per well of PE-conjugated goat anti-mouse IgG F(ab′)2 detection fragment (Dianova, Germany) diluted 1:100 in FACS buffer. For secondary staining of previous staining with humanized antibodies of invention, cells were spun down and resuspended in 100 μl per well of PE-conjugated goat anti-human IgG F(ab′)2 detection fragment (Dianova, Germany) diluted 1:100 in FACS buffer. Protected from light, the cell suspensions were incubated on ice for 1 hour. Plates were then centrifuged at 1,500 rpm and 4° C. for 3 minutes and washed three times with 200 μl per well of FACS buffer. Finally, cells were resuspended in 150 μl per well of FACS buffer and analyzed using a BD Accuri™ C6 Plus flow cytometer (Becton Dickinson, Germany).

The target of test [2] is T1, dog iRhom2 full length wild type …. The test can be described thus: FACS on MEF-DKO-Dog-iR2-FL-WT-T7 cells. The procedure: as §1, with “For secondary staining of previous staining with humanized antibodies of invention, cells were spun down and resuspended in 100 μl per well of PE-conjugated goat anti-human IgG F(ab′)2 detection fragment (Dianova, Germany) diluted 1:100 in FACS buffer. Protected from light, the cell suspensions were incubated on ice for 1 hour. Plates were then centrifuged at 1,500 rpm and 4° C. for 3 minutes and washed three times with 200 μl per well of FACS buffer.” left out

B1: humanized antibody 42-B-04 (antibody, V domains shown)
VH: QVTLRESGPALVKPTQTLTLTCTFSGFSLSTFGRGVGWIRQPPGKALEWLAHIWWDDEKYYNSALKSRLTISKDTSKNQVVLTITNMDPVDTATYYCARIQNYGSNYWYFDVWGQGTLVTVSS
VL: AIQLTQSPSSLSASVGDRVTITCRASSRISYMFWYQQKPGKAPKVLIYDTSNLASGVPSRFSGSGSGTDYTLTISSLQPEDFATYYCQQWNAYPLTFGQGTKLEIK
notes: Tested as whole humanized antibody produced in CHO cells and detected with anti-human IgG; the general methods speak of human IgG1/Kappa; also called clone 42-B-04
Take B1: the binding result in test [1] was “binds”.

B2: humanized antibody 42-B-02 (antibody, V domains shown)
VH: B1 VH
VL: B1 VL with A92S
notes: Tested as whole humanized antibody from transient expression of heavy chain/kappa light chain pairs in CHO cells, detected with anti-human IgG; the general methods speak of human IgG1/Kappa; also called clone 42-B-02
Regarding B2, the binding result in test [1] was “binds”.

B3: humanized antibody 23-B-04 (antibody, V domains shown)
VH: B1 VH with R34M, Q101S, D111N
VL: B1 VL with R28S, I29V, F33Y
notes: Tested as whole humanized antibody produced in CHO cells and detected with anti-human IgG; the general methods speak of human IgG1/Kappa; also called clone 23-B-04
Take B3: the binding result in test [1] was “binds”.

B4: humanized antibody 16-B-07 (antibody, V domains shown)
VH: QVTLRESGPALVKPTQTLTLTCTFSGFSLSTFALGVGWIRQPPGKALEWLAHIWWDEDKYYNPALKSRLTISKDTSKNQVVLTITNMDPVDTATYYCARITTYYYGMDYWGQGTLVTVSS
VL: EIVMTQSPDFQSVTPKEKVTITCRASQSIGNHLHWYQQKPDASPKLLIKYASQSISGVPSRFSGSGSGTDFTLTINSLEAEDAATYFCQQSYQWPLTFGQGTKLEIK
notes: Tested as whole humanized antibody produced in CHO cells and detected with anti-human IgG; the general methods speak of human IgG1/Kappa; also called clone 16-B-07
Take B4: the binding result in test [1] is on record as “binds”.

B5: humanized antibody 16-B-03 (antibody, V domains shown)
VH: B4 VH with E57D
VL: B4 VL
notes: Tested as whole humanized antibody produced in CHO cells and detected with anti-human IgG; the general methods speak of human IgG1/Kappa; also called clone 16-B-03
With B5, the binding result in test [2] is on record as “binds”.

B6: humanized antibody 16-B-05 (antibody, V domains shown)
VH: B4 VH
VL: B4 VL with Q93N
notes: Tested as whole humanized antibody produced in CHO cells and detected with anti-human IgG; the general methods speak of human IgG1/Kappa; The printed LCVD reads SRESGSG where the printed cDNA encodes SRFSGSG; also called clone 16-B-05
Regarding B6, in test [1], the binding result was “binds”.
